System: NC(=O)C[C@H](N)C(=O)O
Test: purified protein
Assay type: biochemical, Mycolicibacterium smegmatis
Settings: 50 mM Tris-HCl pH 8.6, 37 °C (standard assay), 0.05-4.0 mM L-Asn

Substance: MsA (Mycobacterium smegmatis L-asparaginase, MSMEG_3173) (Mycolicibacterium smegmatis MC2 155)
- Km: 1403 ± 240 µM
- kcat: 708.1 ± 25.05 s⁻¹
